Measured values: US20250145716A1 (RAKUTEN MEDICAL, published 2025)
Like-named read-outs stand apart in the source and are kept apart here.

Experiments:
[1] = target: T1, human PD-L1 expressed on cells (human, UniProt Q9NZQ7 19-290); test: cell-based or functional assay
[2] = target: T1, human PD-L1 expressed on cells; test: cell-based or functional assay; remark: listed apart in the source
6xHis-tagged huPD-L1 [3] = target: T2, 6xHis-tagged huPD-L1 (human, UniProt Q9NZQ7 19-238); test: ELISA, plate-coated 6xHis huPD-L1, OD 450 nm
T2 construct: also called human PD-L1 (RD Systems 9049-B7); extracellular domain of human PD-L1 fused to a His tag; not shown: 6xHis tag
T2 sequence (Q9NZQ7 19-238): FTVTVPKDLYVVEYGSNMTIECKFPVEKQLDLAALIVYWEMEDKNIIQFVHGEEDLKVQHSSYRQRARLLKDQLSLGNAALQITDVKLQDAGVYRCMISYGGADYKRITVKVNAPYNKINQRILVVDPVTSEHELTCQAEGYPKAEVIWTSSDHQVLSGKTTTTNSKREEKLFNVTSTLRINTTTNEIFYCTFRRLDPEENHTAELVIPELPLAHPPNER
Method: (§1) Hybridoma supernatants were tested for binding to huPD-L1, cyPD-L1, and muPD-L1 by ELISA. Briefly, 30 μL 6xHis-tagged huPD-L1, cyPD-L1, or muPD-L1 (1 μg/mL in PBS) were immobilized in wells of a 96-well assay plate overnight at 4° C. After washing and blocking steps, 30 μL of antibody supernatant were added to the plate and incubated at room temperature for 1 hr. Bound human antibody was detected using horseradish peroxidase (HRP)-conjugated goat anti-human Fc (Invitrogen Cat. No. 109-035-097; diluted 1:5000) or goat anti-mouse Fc HRP (Invitrogen Cat. No. 115-035-071) as a control. Bound antibody was detected with 1-Step Ultra™ TMB-ELISA Substrate (ThermoFisher Scientific Cat. No. 34029). When the reaction was complete the reaction was stopped, and the plate was read at 450 nm.

6xHis-tagged cyPD-L1 [4] = target: T3, 6xHis-tagged cyPD-L1 (cynomolgus monkey, UniProt Q9NZQ7 19-238 (human entry)); test: ELISA, plate-coated 6xHis cyPD-L1, OD 450 nm
T3 construct: The assay text says only '6xHis-tagged cyPD-L1'; also called cynomolgus PD-L1; not shown: 6xHis tag
T3 sequence (Q9NZQ7 other isoform, or with tags, fused parts or gaps): as the sequence (Q9NZQ7 19-238) above, with A33T, A34S, S62N, R68Q, Q82R, F173L, T185A, T192I, H215L counted along it
Method: as §1

[5] = target: T1, human PD-L1 expressed on cells; test: flow cytometry, CHO-hPD-L1 cells, MFI (FITC)
[6] = target: T1, human PD-L1 expressed on cells; test: flow cytometry on unstimulated A431 cells, ratio of EC50 values
Method: (§2) Approximately 2.5×10⁵ A431 squamous cell carcinoma cells were plated in a final volume of 50 μL FACS buffer (phosphate buffered saline, 1% fetal bovine serum, 5 mM EDTA) in 96-well plates. 50 μL 2× Zombie Violet (BioLegend) were added to each well, and the plates were incubated 20-30 minutes at room temperature, protected from light. After incubation, 150 μL FACS buffer were added to each well. The plates were centrifuged at 500×g for 5 minutes. The supernatant was removed, and the cell pellet were resuspended in 200 μL FACS buffer. The wash procedure was repeated for a total of 2-3 washes. […] After the cells were incubated with the primary anti-PD-L1 antibody 1 hour on ice, protected from light, 150 μL FACS buffer were added to each well. The plates were then centrifuged, the supernatant was removed, and the cells were resuspended in 250 μL FACS buffer three times. After the third wash, the cells were resuspended in 100 μL goat anti-human IgG-Alexa Fluor 488 secondary antibody, and incubated for 30 minutes on ice, protected from light. After 3 washes as previously described, the cells were resuspended in 200 μL FACS buffer. The cells were then analyzed using a CytoFLEX flow cytometer.

[7] = target: T1, human PD-L1 expressed on cells; test: flow cytometry, PD-L1-expressing CHO cells, MFI (FITC)
Method: Wild-type (wt) Chinese hamster ovary (CHO) cells (ATCC) and CHO cells engineered to express huPD-L1 (BPS Bioscience) were seeded at 200,000 cells in 50 μL FACS buffer (PBS containing 1% FBS and 5 mM EDTA) per well of a 96-well plate. Cell viability was assessed by adding 50 μL 2×Zombie Violet (BioLegend). Dead cell controls were also prepared and 2×Zombie violet was added. After incubating 20-30 minutes at room temperature, protected from light, 150 μL FACS buffer were added to each well. The plates were centrifuged, and the supernatant was aspirated. […] The plates were incubated 30 minutes on ice, protected from light. 150 μL FACS buffer were then added to each well and the plate was centrifuged. The supernatant was removed and the cells were washed three times in 200 μL FACS buffer. […] The cells were incubated 30 minutes on ice, protected from light. 150 μL FACS buffer were then added to each well and the plate was centrifuged. Supernatant was removed and the cells were washed twice with 200 μL FACS buffer. The cells were then resuspended in FACS buffer and analyzed by CytoFLEX using the appropriate channels. After gating for whole, single, live cells, the MFI in the APC channel (or FITC channel for human control samples) was normalized to the signal from hybridoma media alone (or isotype control for human control). MFI fold over media alone was determined for each clone supernatant tested.

[8] = target: T1, human PD-L1 expressed on cells; test: flow cytometry, IFN-γ-stimulated A431 cells, MFI (FITC)
[9] = target: T1, human PD-L1 expressed on cells; test: flow cytometry, IFN-γ-stimulated BxPC3 cells, MFI (FITC)
[10] = target: T1, human PD-L1 expressed on cells; test: flow cytometry on unstimulated A431 cells, 10 conjugate concentrations
Method: as §2

[11] = target: T4, PD-L1-His (Acro Cat PDL-H5229) (human, UniProt Q9NZQ7 19-238); test: SPR (Biacore 4000) as in Example 3, conjugate captured, PD-L1-His analyte, 25° C.
T4 construct: also called human PD-L1 (SPR analyte); not shown: His tag
T4 sequence (Q9NZQ7 19-238 limits assumed): as the sequence (Q9NZQ7 19-238) above
Method: (§3) The binding affinities of the generated antibodies to human PD-L1 were determined by surface plasmon resonance. […] PD-L1-His (Acro Cat PDL-H5229) was tested for binding in a 3-fold titration series up to 100 nM. Data were collected in HBS-P (pH 7.4) at 37° C. and 25° C.
(§4) The binding affinities of the generated anti-PD-L1 conjugates were determined by surface plasmon resonance, as described in Example 3.

[12] = target: T4, PD-L1-His (Acro Cat PDL-H5229); test: SPR (Biacore 4000) as in Example 3, conjugate captured, PD-L1-His analyte, 37° C.
Method: as §3, §4

[13] = target: T1, human PD-L1 expressed on cells; test: cell-based or functional assay; remark: listed apart in the source
6xHis-tagged huPD-L1 [14] = target: T2, 6xHis-tagged huPD-L1; test: ELISA, plate-coated 6xHis huPD-L1, OD 450 nm; remark: listed apart in the source
Method: as §1
(§5) Anti-PD-L1 antibodies, described in Example 1A and manufactured substantially as described in Example 1B, were tested for to huPD-L1 and cyPD-L1 by ELISA substantially as described in Example 1A, using 12 dilutions of antibody ranging from 1 ng/ml to 3 mg/mL.

6xHis-tagged cyPD-L1 [15] = target: T3, 6xHis-tagged cyPD-L1; test: ELISA, plate-coated 6xHis cyPD-L1, OD 450 nm; remark: listed apart in the source
Method: as §1, §5

[16] = target: T1, human PD-L1 expressed on cells; test: flow cytometry on unstimulated A431 cells (MFI against antibody concentration)
Method: as §2

[17] = target: T4, PD-L1-His (Acro Cat PDL-H5229); test: SPR (Biacore 4000), antibody captured on anti-human CM4 chip, PD-L1-His analyte, 25° C.
Method: as §3

[18] = target: T4, PD-L1-His (Acro Cat PDL-H5229); test: SPR (Biacore 4000), antibody captured on anti-human CM4 chip, PD-L1-His analyte, 37° C.
Method: as §3

6xHis-tagged huPD-L1 [19] = target: T2, 6xHis-tagged huPD-L1; test: ELISA, plate-coated human PD-L1 (1 µg/mL), OD 450 nm, B7 ligand specificity panel
Method: as §1
(§6) Briefly, wells of a 96-well plate (Corning 3690) were incubated with 30 μL human PD-L1 (RD Systems 9049-B7), human PD-L2 (RD Systems 9075-PL), human B7-1/CD80 (RD Systems 9050-B1), human B7-2/CD86 (RD Systems 9090-B2), human B7-H2 (RD Systems 8206-B7), or human B7-H3 (RD Systems 1949-B3), at a concentration of 1 μg/mL in PBS, overnight at 4C, to coat the wells with ligand. After washing and blocking steps, 30 μL of antibody at 8 concentrations ranging from 1 ng/mL to 3 mg/mL were added to the plate and incubated at room temperature for 1 hr. Bound human antibody was detected as described above.

[20] = target: T5, human PD-L2 (RD Systems 9075-PL) (human, UniProt Q9BQ51 20-219); test: ELISA, plate-coated human PD-L2 (1 µg/mL), OD 450 nm, B7 ligand specificity panel
T5 sequence (looked up): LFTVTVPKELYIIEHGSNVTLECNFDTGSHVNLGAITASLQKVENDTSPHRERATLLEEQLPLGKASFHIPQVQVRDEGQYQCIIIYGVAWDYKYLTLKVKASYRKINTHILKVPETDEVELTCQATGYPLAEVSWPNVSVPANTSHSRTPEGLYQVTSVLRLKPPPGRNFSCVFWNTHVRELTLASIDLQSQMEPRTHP
Method: as §1, §6

T1 sequence (Q9NZQ7 19-290): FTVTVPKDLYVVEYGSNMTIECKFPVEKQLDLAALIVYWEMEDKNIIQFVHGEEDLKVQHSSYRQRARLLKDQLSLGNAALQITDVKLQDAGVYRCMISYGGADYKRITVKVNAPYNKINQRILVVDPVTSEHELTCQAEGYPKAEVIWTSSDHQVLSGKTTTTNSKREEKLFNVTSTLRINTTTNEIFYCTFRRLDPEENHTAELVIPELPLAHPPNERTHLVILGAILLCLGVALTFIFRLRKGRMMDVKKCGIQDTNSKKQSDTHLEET

B1: 1P9-IR700 (antibody, V domains shown)
VH: EVQLVESGGGLVQPGGSLRLSCAASGFTFSTYWMSWVRQAPGKGLEWVANIKQDGGERYYVDSVKGRFTISRDNAKSSLYLQMNSLRAEDTALYYCARLRLYSDYEDYWGQGTLVTVSS
VL: DIQMTQSPSSVSASVGDRVTITCRASQGISSWLAWYQQKPGKAPKLLIYSVSSLQSGVPSRFSGSGSGTDFTLTISSLQPEDSATYYCQQANSLPPTFGGGTKVEIK
modifications: IRDye 700DX (IR700) attached via NHS ester; sites not stated; IRDye 700DX (IR700) attached via NHS ester; sites not stated; DAR 2.5 per antibody
notes: also called 1P9-IR700 conjugate; anti-PD-L1-IR700 conjugate
Q: For B1, which “EC50 of photoimmunotherapy-induced killing of A431 cells (Cell Tox Green, 128 J/cm^2)” value [1] is on record?
A: 0.0124 µg/mL

Q: And the “EC50 of luminescence (RLU), PD-1:PD-L1 Blockade Bioassay (PD-L1 aAPC/CHO-K1 cells with PD-1 Effector Jurkat NFAT-luciferase cells)” value [2]?
A: 0.161 µg/mL

Q: What about the EC50 (6xHis-tagged huPD-L1 [3]) of the same binder?
A: 0.0636 µg/mL

Q: And the EC50 (6xHis-tagged cyPD-L1 [4])?
A: 0.0542 µg/mL

Q: What about the EC50 [5] of the same binder?
A: 0.0151 µg/mL

Q: What about the “fold potency against avelumab-IR700” value [6] of the same binder?
A: ~23 fold

Q: And the EC50 [7]?
A: 0.0156 µg/mL

Q: And the EC50 [8]?
A: 0.046 µg/mL

Q: And the EC50 [9]?
A: 0.0439 µg/mL

Q: And the EC50 [10]?
A: 0.0129 µg/mL

Q: And the Kd [11]?
A: 0.26 nM

Q: And the koff [11]?
A: 5.4e-05 s⁻¹

Q: What about the kon [11] of the same binder?
A: 210000 M⁻¹ s⁻¹

Q: What about the Kd [12] of the same binder?
A: 0.97 nM

Q: What about the koff [12] of the same binder?
A: 0.00038 s⁻¹

Q: And the kon [12]?
A: 390000 M⁻¹ s⁻¹

B2: 1P4 (antibody, V domains shown)
VH: QVQLVESGGGVVQPGRSLRLSCAASGFTFSNYGMHWVRQAPGKGLEWVSLILYDGSNKYYADSVKGRFTISRDNSKNTLYLQMNSLRAEDTAVYYCARDRVWLDVWGKGTTVTVSS
VL: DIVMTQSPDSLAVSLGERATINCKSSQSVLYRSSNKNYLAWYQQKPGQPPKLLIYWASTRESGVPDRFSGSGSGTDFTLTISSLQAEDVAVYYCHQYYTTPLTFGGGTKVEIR
notes: Recombinant full-length human antibody expressed in CHO K1 GS KO cells, with wild-type human Fc; also called anti-PD-L1 antibody 1P4; Unconj; 1P4
Q: Which “EC50 of luminescence (RLU), PD-1:PD-L1 Blockade Bioassay (PD-L1 aAPC/CHO-K1 cells with PD-1 Effector Jurkat NFAT-luciferase cells)” value [13] does the source give for B2 here?
A: 0.25 µg/mL

Q: And the EC50 (6xHis-tagged huPD-L1 [14])?
A: 0.0399 µg/mL

Q: What about the EC50 (6xHis-tagged cyPD-L1 [15]) of the same binder?
A: 0.0306 µg/mL

Q: What about the EC50 [7] of the same binder?
A: 0.0457 µg/mL

Q: What about the EC50 [16] of the same binder?
A: 0.0415 µg/mL

Q: What about the Kd [17] of the same binder?
A: 18 nM

Q: And the koff [17]?
A: 0.0045 s⁻¹

Q: What about the kon [17] of the same binder?
A: 250000 M⁻¹ s⁻¹

Q: And the Kd [18]?
A: 27 nM

Q: And the koff [18]?
A: 0.0097 s⁻¹

Q: What about the kon [18] of the same binder?
A: 360000 M⁻¹ s⁻¹

Q: And the EC50 (6xHis-tagged huPD-L1 [19])?
A: 0.478 µg/mL

Q: And the EC50 [20]?
A: 5.76 µg/mL
